Test: Heme binding by native and mutant forms of GST-IsdA (electronic spectra, A407/A280)
Settings: GST-IsdA fusion proteins as expressed and isolated from E. coli; heme scavenged from E. coli cytoplasm; room temperature
Protocol: Wild type and point mutant proteins were purified as expressed from E. coli and relative heme binding was assessed based upon the ability of the proteins, all expressed in an equivalent fashion, to scavenge and retain association with heme derived from the cytoplasm of E. coli Proteins were adjusted to an equivalent concentration and electronic spectra were recorded using a Cary 500 spectrophotometer (Varian Inc.) with a 1 cm path length and 1 mL quartz cuvettes. All recordings were taken at room temperature.

B1: IsdA: full length (excluding signal peptide and C-terminal sorting sequences) IsdA, amino acids 48-316, GST fusion expressed in E. coli (protein, listed as Staphylococcus aureus)
chain: TEATNATNNQSTQVSQATSQPINFQVQKDGSSEKSHMDDYMQHPGKVIKQNNKYYFQTVLNNASFWKEYKFYNANNQELATTVVNDNKKADTRTINVAVEPGYKSLTTKVHIVVPQINYNHRYTTHLEFEKAIPTLADAAKPNNVKPVQPKPAQPKTPTEQTKPVQPKVEKVKPTVTTTSKVEDNHSTKVVSTDTTKDQTKTQTAHTVKTAQTAQEQNKVQTPVKDVATAKSESNNQAVSDNKSQQTNKVTKHNETPKQASKAKELPKT
modifications: GST fusion
Question: Which A407/A280 ratio does the source give for B1 here?
Answer: The A407/A280 ratio was 0.629.

Reference: patent US20080050361A1, “STAP[…] […] ANTI-INFECTIVES” (priority 2004, published 2008)
